Measurements published in patent US20240158497A1 (published 2024).

Legend:
[1] = target: T1, Macaca Fascicularis GP130 extracellular domain expressed with a C-terminal myc-myc-hexahistidine tag (Macaca fascicularis, UniProt P40189 23-619 (human entry)); assay: SPR, bsAb captured by anti-hFc, 37C
T1 construct: also called mfGP130-MMH; mfGP130-mmH
T1 chain: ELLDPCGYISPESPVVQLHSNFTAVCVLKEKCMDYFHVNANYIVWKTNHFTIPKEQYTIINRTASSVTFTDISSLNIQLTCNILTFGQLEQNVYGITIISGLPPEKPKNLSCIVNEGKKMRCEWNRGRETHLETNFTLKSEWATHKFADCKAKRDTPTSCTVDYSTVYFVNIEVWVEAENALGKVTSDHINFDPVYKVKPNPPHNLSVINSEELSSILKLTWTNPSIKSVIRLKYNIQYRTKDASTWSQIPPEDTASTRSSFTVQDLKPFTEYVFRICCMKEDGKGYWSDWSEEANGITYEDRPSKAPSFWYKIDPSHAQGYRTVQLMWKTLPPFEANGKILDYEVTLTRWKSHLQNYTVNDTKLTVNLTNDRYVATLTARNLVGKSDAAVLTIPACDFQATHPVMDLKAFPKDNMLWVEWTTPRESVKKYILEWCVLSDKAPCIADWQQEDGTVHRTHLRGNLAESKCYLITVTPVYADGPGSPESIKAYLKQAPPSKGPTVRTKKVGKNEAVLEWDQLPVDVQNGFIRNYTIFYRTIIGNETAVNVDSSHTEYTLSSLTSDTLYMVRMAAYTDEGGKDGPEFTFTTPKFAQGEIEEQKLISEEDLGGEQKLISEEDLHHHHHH
Description: (§1) Equilibrium dissociation constants (KD values) for LEPR and GP130 binding to purified anti-LEPR/GP130 bispecific antibodies were determined using a real-time surface plasmon resonance biosensor using a Biacore 4000 instrument. All binding studies were performed in 10 mM HEPES, 150 mM NaCl, 3 mM EDTA, and 0.05% v/v Surfactant Tween-20, pH 7.4 (HBS-ET) running buffer at 25° C. and 37° C. The Biacore sensor surface was first derivatized by amine coupling with a monoclonal mouse anti-human Fc antibody (GE, #BR-1008-39) to capture anti-LEPR/GP130 bispecific antibodies. […] Different concentrations of LEPR or GP130 reagents were first prepared in HBS-ET running buffer (100 nM-3.7 nM; 3-fold serial dilution) and were injected over anti-human Fc captured anti-LEPR/GP130 bispecific antibody surface for 4 minutes at a flow rate of 30 μL/minute, while the dissociation of bispecific antibody bound LEPR or GP130 reagent was monitored for 10 minutes in HBS-ET running buffer. Kinetic association (kₐ) and dissociation (kd) rate constants were determined by fitting the real-time binding sensorgrams to a 1:1 binding model with mass transport limitation using Scrubber 2.0c curve-fitting software. Binding dissociation equilibrium constants (KD) and dissociative half-lives (t ½) were calculated from the kinetic rate constants as: […]

[2] = target: T2, human GP130 extracellular domain expressed with a C-terminal myc-myc-hexahistidine tag (human, UniProt P40189 23-619); assay: SPR, bsAb captured by anti-hFc, 37C
T2 construct: also called hGP130-MMH; hGP130-mmH
Description: as §1

[3] = target: T1, Macaca Fascicularis GP130 extracellular …; assay: SPR, bsAb captured by anti-hFc, 25C
Description: as §1

[4] = target: T2, human GP130 extracellular domain …; assay: SPR, bsAb captured by anti-hFc, 25C
Description: as §1

Binder | 100 nM mfGP130-MMH Bound (RU) [1] [RU] | Kd [1] [nM] | koff [1] [s⁻¹] | kon [1] [M⁻¹ s⁻¹] | t½ [1] [min] | 100 nM hGP130-MMH Bound (RU) [2] [RU] | Kd [2] [nM] | koff [2] [s⁻¹] | kon [2] [M⁻¹ s⁻¹] | t½ [2] [min] | 100 nM mfGP130-MMH Bound (RU) [3] [RU] | Kd [3] [nM] | koff [3] [s⁻¹] | kon [3] [M⁻¹ s⁻¹] | t½ [3] [min] | 100 nM hGP130-MMH Bound (RU) [4] [RU] | Kd [4] [nM] | koff [4] [s⁻¹] | kon [4] [M⁻¹ s⁻¹] | t½ [4] [min]
bsAb19142D (bispecific antibody, V domains shown, LEPR x GP130 bispecific with common light chain) VH 1: QVQLVESGGGVVQPGRSLRLSCTASGFTFSSYAMYWVRQAPGKGLEWVSVIYYDGSYKYYADSVKGRFTISRDNSKNTLYLQMDSLRAEDTAVYYCASYNWNYWYFDFWGRGTLVTVSS VH 2: EVQLVESGGGLVQPGGSLRLSCAASGLTFSSYEMNWVRQAPGKGLEWVSHISSAGSTKYYADSVKGRFTISRDNAKNSLFLQMNSLRAEDTAIYYCAGYNYAYYYFGVDVWGQGTTVTVSS VL: not shown | 33 | 21.6 | 0.00715 | 332000 | 1.6 | 37 | 17.5 | 0.00622 | 356000 | 1.9 | 28 | 31.2 | 0.00374 | 120000 | 3.1 | 31 | 19 | 0.00329 | 173000 | 4
bsAb19144D (bispecific antibody, V domains shown, LEPR x GP130 bispecific with common light chain) VH 1: QVQLVESGGGVVQPGRSLRLSCTASGFTFSSYAMYWVRQAPGKGLEWVSVIYYDGSYKYYADSVKGRFTISRDNSKNTLYLQMDSLRAEDTAVYYCASYNWNYWYFDFWGRGTLVTVSS VH 2: QVQLVQSGAEVKKPGASVKVSCKASGYTFTSLGISWVRQAPGQGLEWMGWISAYSGNRDYAQKFQGRVTMTTDTSTSTAYMELRSLRSDDTAVYYCARSLRFDYWGQGTLVTVSS VL: not shown | 41 | 10.9 | 0.00183 | 168000 | 6 | 42 | 10.6 | 0.00188 | 177000 | 6 | 27 | 13.4 | 0.000762 | 56700 | 15 | 27 | 12.1 | 0.000777 | 64300 | 15
bsAb19143D (bispecific antibody, V domains shown, LEPR x GP130 bispecific with common light chain) VH 1: QVQLVESGGGVVQPGRSLRLSCTASGFTFSSYAMYWVRQAPGKGLEWVSVIYYDGSYKYYADSVKGRFTISRDNSKNTLYLQMDSLRAEDTAVYYCASYNWNYWYFDFWGRGTLVTVSS VH 2: QLQLQESGPGLVKPSETLSLICTVSGGSISSNNYYWGWIRQPPGKGLEWIGNLYGSGSTYYNPSLKSRVTISVDTSKNQFSLKLSFVTAADTAVYHCARWDTNGGAFDIWGQGTMVTVSS VL: not shown | 14 | 57.9 | 0.00396 | 68300 | 2.9 | 27 | 44.6 | 0.00212 | 47600 | 5 | 10 | 43 | 0.0013 | 30100 | 9 | 16 | 20.2 | 0.000647 | 32000 | 18
bsAb19145D (bispecific antibody, V domains shown, LEPR x GP130 bispecific with common light chain) VH 1: QVQLVESGGGVVQPGRSLRLSCTASGFTFSSYAMYWVRQAPGKGLEWVSVIYYDGSYKYYADSVKGRFTISRDNSKNTLYLQMDSLRAEDTAVYYCASYNWNYWYFDFWGRGTLVTVSS VH 2: EVQLVESGGGLVQPGRSLRLSCAASGFTLDDFAMHWVRQAPGKGLEWVSGISWNSGNIGYADSVKGRFTISRDNARNSLYLQMNSLRAEDTALYYCTSGYYLYYAMDVWGQGTTVTVSS VL: not shown | 29 | 37.6 | 0.00221 | 58800 | 5 | 30 | 32 | 0.00222 | 69200 | 5 | 18 | 17.4 | 0.000576 | 33100 | 20 | 19 | 17.5 | 0.000598 | 34100 | 19
bsAb19146D (bispecific antibody, V domains shown, LEPR x GP130 bispecific with common light chain) VH 1: QVQLVESGGGVVQPGRSLRLSCTASGFTFSSYAMYWVRQAPGKGLEWVSVIYYDGSYKYYADSVKGRFTISRDNSKNTLYLQMDSLRAEDTAVYYCASYNWNYWYFDFWGRGTLVTVSS VH 2: QVQLVQSGPEVKKPGSSVKVSCKASGGTIDRNEITWVRQAPGQGLEWMGVIIPILGEAHYERKFQGRLTITMDESTSTAYMELSNLRSEDTAVYYCARERAARGYLDYWGQGTLVTVSS VL: not shown | 53 | 0.959 | 0.000626 | 653000 | 18 | 53 | 0.901 | 0.000641 | 712000 | 18 | 31 | 0.513 | 0.000258 | 502000 | 45 | 31 | 0.448 | 0.000273 | 609000 | 42
bsAb19150D (bispecific antibody, V domains shown, LEPR x GP130 bispecific with common light chain) VH 1: QVQLVESGGGVVQPGRSLRLSCTASGFTFSSYAMYWVRQAPGKGLEWVSVIYYDGSYKYYADSVKGRFTISRDNSKNTLYLQMDSLRAEDTAVYYCASYNWNYWYFDFWGRGTLVTVSS VH 2: EVQLVESGGGLVQSGGSLRLSCAASGFTFSRYEMNWVRQAPGKGLEWVAYISNTGTTRDYSDSVKGRFTISRDNAKNSLYLQMSSLRVEDTAVYYCVREKFSGTSDWFDPWGQGTLVTVSS VL: not shown | 46 | 19.3 | 0.00773 | 401000 | 1.5 | 52 | 15.4 | 0.00665 | 433000 | 1.7 | 44 | 16.8 | 0.00519 | 308000 | 2.2 | 47 | 14 | 0.0048 | 342000 | 2.4
